# Patent US11866736B2, “Protein prostheses for mitochondrial diseases or conditions” (The General Hospital Corporation, priority 2015, dated 2024)
# B1: LbNOX: water-forming NADH oxidase endogenous to Lactobacillus brevis; tested with C-terminal FLAG tag (protein, listed as Lactobacillus brevis)
# chain: KVTVVGCTHAGTFAIKQILAEHPDAEVTVYERNDVISFLSCGIALYLGGKVADPQGLFYSSPEELQKLGANVQMNHNVLAIDPDQKTVTVEDLTNHAQTTESYDKLVMTSGSWPIVPKIPGIDSDRVKLCKNWAHAQALIEDAKEAKRITVIGAGYIGAELAEAYSTTGHDVTLIDAMARVMPKYFDADFTDVIEQDYRDHGVQLALGETVESFTDSATGLTIKTDKNSYETDLAILCIGFRPNTDLLKGKVDMAPNGAIITDDYMRSSNPDIFAAGDSAAVHYNPTHQNAYIPLATNAVRQGILVGKNLVKPTVKYMGTQSSSGLALYDRTIVSTGLTLAAAKQQGLNAEQVIVEDNYRPEFMPSTEPVLMSLVFDPDTHRILGGALMSKYDVSQSANTLSVCIQNENTIDDLAMVDMLFQPNFDRPFNYLNILAQAAQAKVAQSVNA
# modifications: C-terminal FLAG tag
# B2: TPNOX: NADPH-specific quintuple mutant (G159A/D177A/A178R/M179S/P184R) of LbNOX (protein)
# chain: KVTVVGCTHAGTFAIKQILAEHPDAEVTVYERNDVISFLSCGIALYLGGKVADPQGLFYSSPEELQKLGANVQMNHNVLAIDPDQKTVTVEDLTNHAQTTESYDKLVMTSGSWPIVPKIPGIDSDRVKLCKNWAHAQALIEDAKEAKRITVIGAGYIAAELAEAYSTTGHDVTLIARSARVMRKYFDADFTDVIEQDYRDHGVQLALGETVESFTDSATGLTIKTDKNSYETDLAILCIGFRPNTDLLKGKVDMAPNGAIITDDYMRSSNPDIFAAGDSAAVHYNPTHQNAYIPLATNAVRQGILVGKNLVKPTVKYMGTQSSSGLALYDRTIVSTGLTLAAAKQQGLNAEQVIVEDNYRPEFMPSTEPVLMSLVFDPDTHRILGGALMSKYDVSQSANTLSVCIQNENTIDDLAMVDMLFQPNFDRPFNYLNILAQAAQAKVAQSVNA
# Test system: HeLa Tet3G cells
# Assay: Cell proliferation assays: rescue of the proliferation defect induced by respiratory chain inhibitors (nuclei counting)
# Type: cell-based, human
# Settings: no pyruvate, doxycycline-inducible expression; for rescue of proliferation defect caused by piericidin: 1 μM piericidin
# Protocol: Five hundred HeLa Tet3G NDI1, Luciferase, LbNOX or mitoLbNOX cells were seeded in 200 μl of DMEM (DMEM (US Biological, D9800), 3.7 g/L NaHCO3, 10% dialyzed FBS (Life Technologies, 26400-044)) per well in a black 96-well plate with clear bottom (Corning, 3904). Twenty four hours after seeding, media was exchanged to DMEM without pyruvate (DMEM (US Biological, D9802), 15.9 mg/L phenol red, 3.7 g/L NaHCO3, 10% dialyzed FBS (Life Technologies, 26400-044))±10 μg/ml chloramphenicol±30 ng/ml ethidium bromide±1 mM pyruvate±300 ng/ml doxycycline. After 0, 2, 3, 4, 5 and 6 days, media was aspirated and cells were fixed by adding 100 μl of 4% paraformaldehyde in PBS and incubating at room temperature for at least 30 min. Paraformaldehyde solution was aspirated and cells were stained with 200 μl of 1 μg/ml Hoechst 33345 in PBS. Plates were covered with sealing aluminum foil and stored at 4° C. before counting cells in each well with Molecular Dynamics IMAGEXPRESS® Ultra (see “Nuclei counting using Molecular Devices IMAGEXPRESS® Ultra,” below).
# One thousand HeLa Tet3G NDI1, Luciferase, LbNOX or mitoLbNOX cells were seeded in 200 μl of DMEM (DMEM (US Biological, D9800), 3.7 g/L NaHCO3, 10% dialyzed FBS (Life Technologies, 26400-044)) per well in a black 96-well plate with clear bottom (Corning, 3904). Twenty four hours after seeding, 10 μl of 6 μg/ml doxycycline (300 ng/ml final concentration) or water was added to each well. Twenty four hours after addition of doxycycline, media was exchanged to DMEM without pyruvate (DMEM (US Biological, D9802), 15.9 mg/L phenol red, 3.7 g/L NaHCO3, 10% dialyzed FBS (Life Technologies, 26400-044)), ±1 μM piericidin, ±1 μM antimycin, ±1 mM pyruvate and ±300 ng/ml doxycycline. After 0, 1, 2, 3 and 4 days, media was aspirated and cells were fixed by adding 100 μl of 4% paraformaldehyde in PBS and incubating at room temperature for at least 30 min. Paraformaldehyde solution was aspirated and cells were stained with 200 μl of 1 μg/ml Hoechst 33345. Plates were covered with sealing aluminum foil and stored at 4° C. before counting cells in each well with Molecular Dynamics IMAGEXPRESS® Ultra (see “Nuclei counting using Molecular Devices IMAGEXPRESS® Ultra,” below).
# Two thousand HeLa Tet3G Luciferase cells were seeded in 200 μl of DMEM (DMEM (US Biological, D9800), 3.7 g/L NaHCO3, 10% dialyzed FBS (Life Technologies, 26400-044)) per well in a black 96-well plate with clear bottom (Corning, 3904). Twenty four hours after seeding, media was exchanged to DMEM without pyruvate (DMEM (US Biological, D9802), 15.9 mg/L phenol red, 3.7 g/L NaHCO3, 10% dialyzed FBS (Life Technologies, 26400-044))±1 μM piericidin, ±indicated concentrations of pyruvate, lactate, malate, oxaloacetate, nicotinamide mononucleotide ([…]) or PJ34. After 3 days, media was aspirated and cells were fixed by adding 100 μl of 4% paraformaldehyde in PBS and incubating at room temperature for at least 30 min. Paraformaldehyde solution was aspirated and cells were stained with 200 μl of 1 μg/ml Hoechst 33345. Plates were covered with sealing aluminum foil and stored at 4° C. before counting cells in each well with Molecular Dynamics IMAGEXPRESS® Ultra (see “Nuclei counting using Molecular Devices IMAGEXPRESS® Ultra,” below).
# Images of 96-well plates with fixed cells stained with Hoechst 33345 were collected using Molecular Devices IMAGEXPRESS® Micro XLS. Four images were taken to cover the whole well. Images were analyzed and nuclei number per well was counted using CellProfiler 2.0 image analysis software (Carpenter, et al., Genome Biol., 7:R100, 2006; and Kamentsky, et al., Bioinformatics, 27:1179, 2011). […]
molecule,measurement,setting,value
B1,rescue of proliferation defect caused by ethidium bromide,30 ng/ml ethidium bromide,rescued completely
same,rescue of proliferation defect caused by antimycin,1 μM antimycin,rescued completely
same,rescue of proliferation defect caused by piericidin,,rescued completely
same,rescue of proliferation defect caused by chloramphenicol,10 μg/ml chloramphenicol,rescued completely
B2,rescue of proliferation defect caused by piericidin,,not
